Test results taken from patent US20100021473A1 (DOMANTIS, published 2010).

Tests used:
CD38 on cells = molecular target: T1, CD38 on cells (UniProt P28907 1-300); experiment: FACS on RPMI cells (CD38+/138+)
T1 construct: whole, on cells; Endogenous CD38 on cell lines used in FACS or microscopy; also called DOM11; T10
Method: (§1) All dAbs were analysed by FACS on antigen positive and negative cell lines using the following method.
(§2) The determination of cell binding by FACS was carried out as follows: cells were centrifuged at 250 g for 5 minutes and the growth medium was removed. The cells were resuspended in FACS incubation buffer at 4° C. at a density of 2×10⁶ cells/ml. The cells were blocked by incubating for 15 minutes at 4° C. in FACS incubation buffer. Fifty microliters of 2× stock of primary antibody (anti-CD38 FITC, anti-CD138 FITC or mIgG1 FITC conjugated isotype control (all BD Biosciences) was added; or dAb was added to cells in FACS incubation buffer and incubated for 30-60 minutes at 4° C. The cells were then washed once in FACS incubation buffer. One hundred microliters of secondary antibody (rabbit anti-Vk) was added to cells in FACS incubation buffer and incubated 30-60 minutes at 4° C. The cells were washed once in FACS incubation buffer. Then 100 ul of 1× tertiary antibody was added to the cells in FACS incubation buffer and incubated for 30-60 mins at 4° C. (for dAbs the tertiary antibody is anti-rabbit FITC (Sigma)). The cells were washed twice in FACS incubation buffer. The cell pellet was resuspend in 200 ul FACS incubation buffer+viable cell marker (BD Viaprobe). The cells were then analyzed by flow cytometry.

[1] = molecular target: T2, CD38 immobilised on Biacore CM5 chip (UniProt P28907 43-300, limits assumed); experiment: SPR (Biacore) co-injection on immobilised CD38, dAbs at 500 nM
T2 construct: also called DOM11
Method: (§3) Anti-CD38, anti-CEA and anti-CD56 dAbs that were identified as FACS positive clones were in addition analysed by Biacore using the following procedure. The CM5 chip surface was activated by flushing 1:1 EDC/NHS (0.4M1-ethyl-3-(3-dimenthylaminopropyl)-carbodiimide in water; 0.1 M N-hydroxysuccinimide in water) at a flow rate of 5 uL/min for 10 minute contact time. CD38 was immobilised at 500 nM in Acetate buffer pH4 at 5 uL/min this was repeated until the RUs reached between 500 and 1000 (low density). CEA and CD56 were coupled in acetate buffer pH 4.5. Any excess reactive groups were deactivated by running 1M ethanolamine-HCl over the CM5 chip (again 5 uL/min for 7 mins). The affinities of the anti-CD38, anti-CEA and anti-CD56 dAbs were measured on the biacore as described above.
Epitope mapping was performed to determine whether anti-CD38 dAbs bound to different epitopes on CD38. The assay was performed on BIAcore as described above using a chip coated at medium density (RUs of ˜2000). CD38 was coated on to a CM5 chip at medium density as described above. Using the co-inject function, the first anti-CD38 dAbs was injected at a concentration of 500 nM. Both the first and second anti-CD38 dabs were the co-injected at the same concentration (500 nM). As both dAbs bind different epitopes, the RUs during the second injection increase beyond the level of binding of the first dAb.

CD138 on cells [2] = molecular target: T3, CD138 on cells (UniProt P18827 23-310); experiment: FACS on HUVEC cells (CD38-/CD138+)
T3 construct: whole, on cells; Endogenous CD138 on cell lines used in FACS; also called DOM12; syndecan-1
T3 sequence (looked up): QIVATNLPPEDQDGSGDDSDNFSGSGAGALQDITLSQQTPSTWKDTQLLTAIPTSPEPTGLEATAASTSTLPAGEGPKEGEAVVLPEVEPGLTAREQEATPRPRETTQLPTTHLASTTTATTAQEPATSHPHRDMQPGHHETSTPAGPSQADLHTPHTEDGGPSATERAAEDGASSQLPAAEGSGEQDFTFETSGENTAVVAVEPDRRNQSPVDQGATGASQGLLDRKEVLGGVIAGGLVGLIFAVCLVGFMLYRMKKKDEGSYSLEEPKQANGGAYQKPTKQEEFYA
Method: as §1, §2

[3] = molecular target: T2, CD38 immobilised on Biacore CM5 chip; experiment: SPR (Biacore), CD38 immobilised on CM5 chip
Method: as §3

[4] = molecular target: T2, CD38 immobilised on Biacore CM5 chip; experiment: Biacore, CD38 immobilised; lower end of the printed range 330-500 nM (Table 8, affinity maturation experiment)
[5] = molecular target: T2, CD38 immobilised on Biacore CM5 chip; experiment: Biacore, CD38 immobilised; upper end of the printed range 330-500 nM (Table 8, affinity maturation experiment)
CD138 on cells [6] = molecular target: T3, CD138 on cells; experiment: FACS on RPMI cells (CD38+/CD138+), dAb at 500 nM
Method: as §1, §2

B1: DOM11-23 (other)
chain: DIQMTQSPSSLSASVGDRVTITCRASQSINVRLIWYQQKPGKDPKLLIYSSSHLQSGVPSRFSGSGSGTDFTLTISSLQPEDFATYYCQQYHYTPFTFGQGTKVEIKR
notes: Anti-CD38 dAb monomer
binding result (CD38 on cells): binds | binding result [1]: binds

B2: DOM11-3 (other)
chain: DIQMTQSPSSLSASVGDRVTITCRASQNIDSRLSWYQQKPGKAPKLLIYRTSVLQSGVPSRFSGSGSGTDFTLTISSLQPEDFATYYCQQWDMFPLTFGQGTKVEVK
notes: Anti-CD38 domain antibody (dAb) monomer; also called DOM11-3A
binding result (CD138 on cells [2]): no binding | Kd [3]: 250 nM | Kd [4]: 330 to 500 nM | Kd [5]: 330 to 500 nM

B3: DOM12-45 (other)
chain: DIQMTQSPSSLSASVGDRVTITCRASQDIGDRLRWYQQKPGKAPKLLIYHGSRLESGVPSRFSGSRSGTDFTLTISSLQPEDFATYYCQQQWFRPYTFGQGTKVEIKR
notes: Anti-CD138 dAb monomer
binding result (CD138 on cells [6]): binds
